Experimental data published in patent US20250276075A1, “METHODS OF TREATING AXL-EXPRESSING CANCERS WITH ANTI-AXL ANTIBODIES, ANTIBODY FRAGMENTS AND THEIR IMMUNOCONJUGATES” (BIOATLA, INC., priority 2020, published 2025).
“Also recorded” adds a separate entry of the source.

Tests used:
[1] = Phase 1 clinical study of BA3011: pharmacokinetics; format: in vivo, human
Source text: • PK of BA3011: plasma concentrations of ADC, total antibody and MMAE, and PK parameters, including Cmax and AUC. • Efficacy (expansion cohorts only): ORR, disease control rate (DCR), time to response (TTR), duration of response (DOR), best objective response (OR), progression-free survival (PFS), overall survival (OS), and percent change from baseline in tumor size. • Immunogenicity of BA3011: the number and percentage of patients who develop detectable anti-drug antibodies (ADAs).
Sample collection timepoints for BA3011 PK, PD, and immunogenicity testing are presented in Table 18 (Phase 1) and Table 19 (Phase 2).
(§1) In Phase 1 (NCT03425279), BA3011 was administered once (Q3W) or twice (2Q3W) every 3 weeks via intravenous (IV) infusion.

advanced sarcoma = experiment: Phase 1 clinical study of BA3011: antitumor activity (RECIST v1.1, change in sum of target lesions); format: in vivo, human
Source text: The primary efficacy endpoint in Phase 2 is objective response (OR) per RECIST v1.1 using blinded independent central review (BICR). Objective response rate (ORR) is defined as the proportion of subjects with a best overall response of confirmed CR or confirmed PR that occur prior to the initiation of subsequent anticancer treatment. ORR will be estimated with a 95% CI using the exact probability method for each sarcoma subtype and overall in each of the 2 treatment groups (BA3011 alone and in combination with nivolumab). Other efficacy endpoints are duration of response (DOR), progression-free survival (PFS), best overall response (OR), disease control rate (DCR), time to response (TTR), progression-free rate (PFR) at 12 weeks, overall survival (OS), and percent change from baseline in target lesion sum of diameters. All efficacy endpoints except PFS and OS will be summarized primarily based on the full analysis set (FAS). PFS and OS will be summarized based on the As-Treated Population. Time-to-event data will be summarized using Kaplan-Meier estimates. Response rates and their confidence intervals will be estimated using the exact probability method. Graphical analyses will include spider and waterfall plots for the change and best change from baseline in tumor size, respectively.
Study BA3011-001 was an ongoing, multi-center, open-label, Phase 1/2 first-in-human trial of BA3011.
as §1

rat Axl = target: T1, rat Axl (Rattus norvegicus, UniProt A0A0G2K2H0); experiment: BA3011 binding to rat Axl
T1 sequence (A0A0G2K2H0 21-879): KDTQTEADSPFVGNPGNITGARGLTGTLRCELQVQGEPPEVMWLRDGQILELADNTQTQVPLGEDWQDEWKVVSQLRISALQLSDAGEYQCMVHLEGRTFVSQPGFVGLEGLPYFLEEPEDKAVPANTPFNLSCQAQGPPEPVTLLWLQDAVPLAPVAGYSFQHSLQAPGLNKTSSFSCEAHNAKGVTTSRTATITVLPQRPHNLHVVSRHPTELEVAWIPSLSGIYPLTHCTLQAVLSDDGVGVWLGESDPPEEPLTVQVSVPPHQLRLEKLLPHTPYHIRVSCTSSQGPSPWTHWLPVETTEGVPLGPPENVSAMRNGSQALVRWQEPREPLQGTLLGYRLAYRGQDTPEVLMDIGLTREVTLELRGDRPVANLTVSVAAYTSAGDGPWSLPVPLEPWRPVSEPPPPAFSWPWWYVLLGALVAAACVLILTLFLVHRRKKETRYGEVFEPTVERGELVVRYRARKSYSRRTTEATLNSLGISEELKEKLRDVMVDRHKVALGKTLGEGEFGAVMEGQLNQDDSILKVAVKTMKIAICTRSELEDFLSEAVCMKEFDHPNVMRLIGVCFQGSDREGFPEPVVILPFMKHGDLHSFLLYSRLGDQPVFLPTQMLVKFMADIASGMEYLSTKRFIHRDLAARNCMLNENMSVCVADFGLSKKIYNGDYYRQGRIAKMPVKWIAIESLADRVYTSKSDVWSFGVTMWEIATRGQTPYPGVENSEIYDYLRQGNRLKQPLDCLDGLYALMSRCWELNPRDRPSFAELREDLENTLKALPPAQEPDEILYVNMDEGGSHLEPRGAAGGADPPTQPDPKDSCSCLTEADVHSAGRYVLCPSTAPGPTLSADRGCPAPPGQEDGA

[2] = tested on: Axl expressing human cancer cell lines; experiment: BA3011 in vitro functional assays of cellular toxicity; format: cell-based
[3] = tested on: human tumor cell line derived xenograft tumors expressing Axl; experiment: BA3011 anti-tumor efficacy in xenograft mouse models; format: in vivo
Procedure: Tumor cell lines representing NSCLC (LCLC103H), prostate (DU145), and pancreatic tumor (MIAPaCa2) were tested in this in vivo mouse model system. Once tumors were established at a size of about 150 mm3, animals were treated with BA3011 at the indicated dose levels following the indicated schedule. BA3011 induced greater than 70% TGI in 4 out of 7 models tested, as shown on FIG. 17D.

[4] = at the dose and schedules tested

B1: Mecbotamab vedotin (conjugate, chains of the INN, looked up)
VH: EVQLVQSGAEVKKPGATVKISCKVSGYSFWGATMNWIRQPPGKGLEWIGLIKPSNGGTSYNQKFKGRVTISADKSISTAYLQWSSLKASDTAMYYCAHGHYESYEAMDYWGQGTLVTVSS
VL: DIQMTQSPSSLSASVGDRVTITCKASQDVVSAVAWYQQKPGQAPRLLIYWQDTRHTGVPSRFSGSGSGTEFTLTISSLQPDDFATYYCQEHFSPPLTFGQGTKVEIK
modifications: MC-vc-PAB-MMAE conjugate
In the case of B1, the PK profile [1] is reported as “approximately dose proportional”, the half-life [1] is reported as “approximately 4 days” and the “antitumor activity in sarcoma patients” value (advanced sarcoma; Phase 1) is reported as “correlated with higher levels of AXL tumor membrane expression; also recorded: evidence of antitumor activity was observed”. For the same molecule, the confirmed partial responses (advanced sarcoma; of 7 treatment refractory sarcoma patients with baseline TmPS≥70 dosed at 1.8 mg/kg (Q3w or 2Q3w)) was 4, the “duration of response to therapy” value (advanced sarcoma; sarcoma patients, FIG. 24) was “Prolonged response to therapy” and the “binding to rat Axl” value (rat Axl) was “not mouse or rat Axl; also recorded: lacked binding to the rodent enzyme”. For the same molecule, the cytotoxicity ([2]; normal conditions) was “reduced cytotoxicity”, the cellular toxicity ([2]; tumor conditions) was “induce cellular toxicity” and the body weight loss [3, 4] was “did not induce body weight loss”. For the same molecule, the “clinical signs of toxicity” value [3, 4] was “no other clinical signs of toxicity were noted” and the “tumor growth inhibition (TGI) relative to control” value ([3]; in 4 out of 7 models tested) was “greater than 70%”.
